Experimental data published in the supplement of paper PMC9170038.

system: K4 kissing-loop RNA reporter; assay: apparent KD of K4 kissing-loop reporter; higher = weaker reporter binding; settings: Eterna round: R107; input ligand: theophylline 20 uM
Description: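 RNA-MaP round R107: designed RNA switches with theophylline, tryptophan, arginine or FMN aptamers are transcribed on-chip within common flanks. They are titrated with a labelled K4 kissing-loop RNA reporter in RNA-MaP buffer (100 mM Tris pH 7.5, 80 mM KCl, 4 mM MgCl2), without ligand or with the indicated ligand. Median apparent KD per design.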
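Note: bound reporter read as fluorescence of individual clusters on recovered sequencing chips by microscopy, with normalized cluster intensities fitted with a binding model.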

Sequence | apparent KD of K4 kissing-loop reporter
GGGAUAGGAUCAGUGAUGUUGGUCCCAGAUACCAGACAAAGUCACGUCCCUUGGCAGCUGAUGAUCGCUGACGACCGGCCUCCAA [theeternabot_sameState_KL_Theo_A_7] | 219 nM
UGACUGGACUGAAGGAGCGCGCGAGACAAAGUCUCGAACUGGUAGUGAUGUUAUCAAAUAACGCAGGUAGGUCGCAGUCUAGUCU [ArgBS 12 #SwitchBubble #StaticStem] | 193 nM
UGACUACAAAAGGAAUAAUCCUAGUGAUGUUAGGAUAUGCUGAUAAGCAGAAGGAACUGAGAUCGAAAGAUCUCAAAUGUAGUCU [FmnAX 25 Mat Inspired #SwitchBubble #StaticStem #K4Early] | 103 nM
AAACAUUGGUCGGAUACCAGUUAGACCGAUAGGUCAAAACUGGAGUGAUGUUCCUAAAAUAACCCUUGGCAGCCGACCGAUGAAA [MAT - Same State Theophlline B - Mod of Eli - D5] | 905 nM
CCAUUCAUUUACGAUACCAGUCUAAUAUAUUGAAUCAAAACCCUCGCCGAGUGAUGUUCGGACCCUUGGCAGCGUCUGCGAGAGG [ddrdkmullin] | 543 nM
GGAUAGGACGGAGGAUAUGGUAGUGAUGUUACCAAACUGGUUAAACAUGUCAGAAAACUGGCAUGACCAGAAGGCCGUCCUAUCG [FmnBX 27 G10+C76] | 61.6 nM
CAUACGCAUGGAGGAUAUGAGAUUUCUCAUAUUAUUUAAUAUUCUCAGUGAUGUUGGGAUUUAAACUCAGAAGGCCAUGUGUAUG [Ex FMN B 7] | 234 nM
AAGGUCACCACUACAGUGAUGUUGUAGGAGCAGGAUAUGCAGAAAUGCAGAAGGGCUCGCUCCAGGUGACCGAAUGAAACAUUCA [Omei KL FMN A SS A v4] | 325 nM

same assay, conditions: Eterna round: R107; input ligand: tryptophan 2.4 mM

Sequence | apparent KD of K4 kissing-loop reporter
CAGCCUGGUCAGUGAUGUUGGCCGCAGGGAAAGGAUAUUGUGUUGGCAAGAAGGUUCGCUUGAUCGUUGGCCCAUGCAUGGGCCU [theeternabot_sameState_KL_FMN_A_44] | 183 nM
CUUAUGGACUAAGGAUAUGGGUAUACCGGAAGCGCCGUCACGGUAGUGAUGUUACACGCGACGGGACCAGAAGGUAGAUCGCUCC [theeternabot_exclusion_KL_FMN_B_33] | 85.5 nM
UUGUUUGGUUGAGAGGUUGGGCGAGAUGAUACCAGUAGAGAAGAGUACCCUUGGCAGCAUAGGAGAGAUAUAGUGAUGUUGUAUA [SSTheophA.R] | 402 nM
GCGCGUCAUGUCAGCGGUGACACUGUCGAUACCAGUGCCGCAAGGCGCCCUUGGCAGCGACGUGCUGGAGUGAUGUUCCAGCGUU [#2 Exclusion - Theophylline A Attempt #29 (HarryS)] | 124 nM
UCACAGUCCAAAGGAUAUUGAGUGCGCGUGCGAUUUAAGCUGAAGCCGUAGCUAGUGAUGUUAGCCCAAGAAGGUUGGUAGCCAG [theeternabot_exclusion_KL_FMN_B_16] | 115 nM
UCGAAGGAUGGAAGGAGCGCUCGUCAGUCCUGCGAGUGAUGUUCGUGGGUAAAUAUUCGCGAGCAGGUAGGUCGCCAUCUUGAGA [Laatla] | 129 nM
GGUAGCAUGGCGGCCGCCACUCAUGUAGAUACCUACAUAGUAAGCAGUGAUGUUGCUUUGUGGUUGAGGACCGGGCCAUGCUACC | 255 nM
AAUCAAUACAGAAGGAGCGUGACAGUUGCGAGUGUAAUUUUAGCUAGUGAUGUUAGCAUUUCACAGGUAGGUCGCUGUACAUUUA [#05 K4 Arginine B Same State] | 105 nM
GGAUAGGAUAGAGGAUAUGGUUUAGGCAAGAAUAACUUGUCAUGUAAAUCCAUGAGGAGUGAUGUUCCAGAAGGCUGUCCUAUCG [MatMod 8 - Jieux - Exclusion - FMN B] | 91.8 nM
AGCUGCCGAAUAGAUACCAGUGUCUUUAGUGAUGUUUCAGAGCUGGCACGAUCAGAAGGUCACCCUUGGCAGCUAGUGCCAGCGU [theeternabot_exclusion_KL_Theo_B_39] | 267 nM
UGAUACCAGACGGCCGCCACUAGACCAGUCAAAGACUGGAUGUGAUGUUUGAGGAGUGAUGUUCCUAGGACCGGGUCUGGUAUCU [TrypBX 4 #Palindromic #SwitchBubble #StaticStem] | 28.2 nM
AAGGCGUCGAGUUUGGUGGCGCCAACAGAUACCAGAUUACCUCCAAUCCCUUGGCAGCUGGCUUGAGAGUGAUGUUUUCAAAAGU [theeternabot_sameState_KL_Theo_A_33] | 349 nM
GGCAUCCAUGGACAUAGUGAUGUUAUGUACCGAGGACCGGUACGGCCGCCACUCGGCCAUGGAUGCCGCAAUCGGAAACGAUUGC | 290 nM
CCAUCGCUAUUCGAUACCAGCUACUUAGUGAUGUUAAGUUUUUACCCACUGUAGGUGGGAAGCCCUUGGCAGCGAAUAGUGAUGG [Theophylline B K4 27] | 209 nM
UGAACCGCCCAGUGAUGUUGGGCCAUAGAUACCAGCCUCUCCGACGGCCCUUGGCAGCUAGGGCCCGGCAGGUAGGAGACUCUGC [Orarzasove] | 204 nM
UGUCAUUGGUCGGCCGCCACUAGGACCGGGAGUAACCUAGUGAUGUUAGUGUGCUCGGCCGCCACUAGGACCGGGACCGAUGACU [KL-SSTryp-B22 #DoubleAptamer] | 103 nM
AGAACUGUCUUGGAUACCAGUGAUGUUGGUAUCUAUGUGUGAGUGCAAAGCGUCCCACAUUGCCCUUGGCAGCUAAGACUGUUCA [Omei KL Theo B Exc A v2] | 145 nM
GGAUAGGAUAGAGGAUAUGGUUUAUGCAGGAAUAACUUAUCGUGUAAAUCCAUAGGGAGUGAUGUUCCAGAAGGCUGUCCUAUCG [MatMod 13 - Jieux - Exclusion - FMN B] | 170 nM
UGACUGGAUGGAAGGAGCGCUAAACUCCUAGUGAUGUUAGGGAAACGAGACAAAGUCUCGAGGCAGGUAGGUCGCCAUCUAGUCU [FiskerMod 15 - Jieux - Same State - Arginine B] | 155 nM
UGUCAUUGGUCGGCCGCCACUCCAUAAAGAGUGAUGUUCUAAAAGACGGAUCGAAAGAUCUGUCGGAGGACCGGGACCGAUGACU [FiskerMod 4 - Jieux - Same State - Tryptophan B] | 243 nM
UGAUAGGACAGAAGGAGCGGAAGUGAUGUUUCCAAAAGGAAAGGUCGACAAAGUCGACCCUUCCAGGUAGGUCGCUGUCCUAUCU [ArgBX 8 #Palindromic #SwitchBubble #StaticStem] | 81.5 nM
AAGUGUGUGGCGGCCGCCACUAGGAUCCAGUGAUGUUGGAGAUAUCUCGUAAGAGAUAUCCGCCAUAGGACCGGGCCAUAUAGAA [Same State - Tryptophan B (Freestyle 16)] | 176 nM
GGGAUAGGAUCAGUGAUGUUGGUCCCAGAUACCAGACAAAGUCACGUCCCUUGGCAGCUGAUGAUCGCUGACGACCGGCCUCCAA [theeternabot_sameState_KL_Theo_A_7] | 256 nM
UGACUGGACUGAAGGAGCGCGCGAGACAAAGUCUCGAACUGGUAGUGAUGUUAUCAAAUAACGCAGGUAGGUCGCAGUCUAGUCU [ArgBS 12 #SwitchBubble #StaticStem] | 188 nM
UGACUACAAAAGGAAUAAUCCUAGUGAUGUUAGGAUAUGCUGAUAAGCAGAAGGAACUGAGAUCGAAAGAUCUCAAAUGUAGUCU [FmnAX 25 Mat Inspired #SwitchBubble #StaticStem #K4Early] | 93 nM
AAACAUUGGUCGGAUACCAGUUAGACCGAUAGGUCAAAACUGGAGUGAUGUUCCUAAAAUAACCCUUGGCAGCCGACCGAUGAAA [MAT - Same State Theophlline B - Mod of Eli - D5] | 808 nM
CCAUUCAUUUACGAUACCAGUCUAAUAUAUUGAAUCAAAACCCUCGCCGAGUGAUGUUCGGACCCUUGGCAGCGUCUGCGAGAGG [ddrdkmullin] | 519 nM
GGAUAGGACGGAGGAUAUGGUAGUGAUGUUACCAAACUGGUUAAACAUGUCAGAAAACUGGCAUGACCAGAAGGCCGUCCUAUCG [FmnBX 27 G10+C76] | 67.4 nM
CAUACGCAUGGAGGAUAUGAGAUUUCUCAUAUUAUUUAAUAUUCUCAGUGAUGUUGGGAUUUAAACUCAGAAGGCCAUGUGUAUG [Ex FMN B 7] | 169 nM
AAGGUCACCACUACAGUGAUGUUGUAGGAGCAGGAUAUGCAGAAAUGCAGAAGGGCUCGCUCCAGGUGACCGAAUGAAACAUUCA [Omei KL FMN A SS A v4] | 381 nM
